T1: human IL-23R-mouse Fc fusion protein (human; mouse, UniProt Q5VWK5 24-353)
T1 construct: Expressed in FreeStyle 293 cells; also called human IL-23R-Fc fusion protein; not shown: Fc region of mouse immunoglobulin IgG2a as encoded by vector pFUSE-mIgG2A-Fc2 (InvivoGen); limits and any linker not sta
T1 sequence: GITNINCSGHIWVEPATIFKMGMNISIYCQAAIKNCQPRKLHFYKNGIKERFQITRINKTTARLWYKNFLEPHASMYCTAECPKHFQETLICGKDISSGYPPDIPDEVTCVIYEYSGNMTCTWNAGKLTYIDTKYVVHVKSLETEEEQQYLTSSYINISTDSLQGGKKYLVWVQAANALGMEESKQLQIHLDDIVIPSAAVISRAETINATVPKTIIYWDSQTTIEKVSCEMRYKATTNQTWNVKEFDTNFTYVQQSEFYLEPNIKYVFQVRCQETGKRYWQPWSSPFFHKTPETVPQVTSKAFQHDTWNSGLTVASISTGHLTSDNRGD

T2: human IL-23R on Kit-225 cells (human, UniProt Q5VWK5 24-629)
T2 sequence: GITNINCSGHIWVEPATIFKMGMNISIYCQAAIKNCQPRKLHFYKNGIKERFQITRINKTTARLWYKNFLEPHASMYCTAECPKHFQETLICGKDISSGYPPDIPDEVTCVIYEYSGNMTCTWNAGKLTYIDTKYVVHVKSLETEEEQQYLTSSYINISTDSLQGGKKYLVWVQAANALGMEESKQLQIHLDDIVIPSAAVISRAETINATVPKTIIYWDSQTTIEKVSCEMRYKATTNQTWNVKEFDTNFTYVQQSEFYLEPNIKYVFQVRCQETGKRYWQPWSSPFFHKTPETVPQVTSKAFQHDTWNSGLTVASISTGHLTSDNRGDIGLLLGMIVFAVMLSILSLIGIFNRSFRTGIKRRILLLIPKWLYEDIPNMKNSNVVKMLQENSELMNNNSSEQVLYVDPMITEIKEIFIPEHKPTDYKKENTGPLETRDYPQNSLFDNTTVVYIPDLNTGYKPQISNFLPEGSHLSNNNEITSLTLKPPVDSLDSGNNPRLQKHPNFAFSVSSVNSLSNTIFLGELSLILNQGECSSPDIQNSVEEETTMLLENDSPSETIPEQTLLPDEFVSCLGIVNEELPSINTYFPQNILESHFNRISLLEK


Tests used:
[1] = target: T3, monkey IL-23R-mouse Fc fusion protein (monkey; mouse); assay: antigen ELISA, monkey IL-23R-mouse Fc immobilized, HRP anti-human IgG, chemiluminescence
T3 construct: extracellular domain; also called monkey IL-23R-Fc fusion protein
Method: (§1) The present inventors used an antigen ELISA to measure the antigen-specific binding activities of the fully human antibodies constructed in the above-described Example. A human or monkey IL-23R-Fc fusion protein was immobilized onto a Maxisorp 384-well plate (Nunc, Inc.) at a concentration of 500 ng/mL. A blocking agent (Blocking One; Nacalai Tesque, Inc.) was added thereto and allowed to stand at room temperature for 1 hour, followed by washing twice with a wash buffer [TPBS: 0.05% Tween-20-containing phosphate buffered saline (PBS)], and each of the purified antibody samples was suitably serially diluted and added thereto. Incubation was performed at room temperature for 1 hour, followed by washing four times with TPBS, and HRP-labeled anti-human IgG antibody (DAKO) which was 2000-fold diluted with dilution buffer (Blocking One which was two-fold diluted with PBS) was added as secondary antibody. Incubation was performed at room temperature for 1 hour, followed by washing four times with a washing buffer. […] of BM-chemiluminescence ELISA substrate (POD) (Roche Diagnostics) that is a reagent for detecting chemiluminescence was added thereto and the amount of chemiluminescence was measured with an EnVision counter (Perkin Elmer). Each of the antibodies was tested in duplicate, and the EC 50 was analyzed by curve fitting.

[2] = target: T1, human IL-23R-mouse Fc fusion protein; assay: antigen ELISA, human IL-23R-mouse Fc immobilized, HRP anti-human IgG, chemiluminescence
Method: as §1

[3] = target: T2, human IL-23R on Kit-225 cells; assay: cell-based or functional assay
[4] = target: T3, monkey IL-23R-mouse Fc fusion protein; assay: antigen ELISA, monkey IL-23R-mouse Fc immobilized, HRP anti-mouse Ig, chemiluminescence
Method: (§2) The present inventors used an antigen ELISA to measure the antigen-specific binding activity of the antibody. The human or monkey IL-23R-Fc fusion protein was immobilized onto a Maxisorp 384-well plate (Nunc, Inc.) at a concentration of 500 ng/mL. A blocking agent (Blocking One; Nacalai Tesque, Inc.) was added thereto and allowed to stand at room temperature for 1 hour, followed by washing twice with a wash buffer [TPBS: a phosphate buffered saline (PBS) containing 0.05% Tween-20], and the purified antibody samples were suitably serially diluted and added thereto. Incubation was performed at room temperature for 1 hour, followed by washing four times with TPBS, and HRP-rabbit anti-mouse Ig antibody (DAKO) which was 2000-fold diluted with a dilution buffer (Blocking One which was two-fold diluted with PBS) was added. Incubation was performed at room temperature for 1 hour, followed by washing four times with a wash buffer. 40 μL of BM-chemiluminescence ELISA substrate (POD) (Roche Diagnostics), which is a reagent for detecting chemical luminescence, was added, and the amount of chemiluminescence was measured with an EnVision counter (Perkin Elmer). Each antibody was tested in duplicate and the EC50 was analyzed by curve fitting. […]

[5] = target: T1, human IL-23R-mouse Fc fusion protein; assay: antigen ELISA, human IL-23R-mouse Fc immobilized, HRP anti-mouse Ig, chemiluminescence
Method: as §2

| EC50 [1] [mg/L] | EC50 [2] [mg/L] | Human IL-23-inducible Kit-225 cell proliferation inhibitory activity, IC50 [3] [mg/L] | EC50 [4] [mg/L] | EC50 [5] [mg/L] | Binder |
| --- | --- | --- | --- | --- | --- |
| 0.0124 | 0.0176 | 0.00309 | – | – | fully human 25-3-1 (antibody, human IgG1, kappa, V domains shown, human Ig gamma1 / kappa) VH: QVQLQESGPGLVKPSQTLSLTCSVSGGSIDSGDHYWTWIRQHPGKGLEWIGYIYSSGHTYYSPSLKSRVTISVDTSKNQFSLRLSSVTAADTAVYYCARVGDYEWFDTWGQGTLVTVSS VL: DIVMTQSPDSLAVSLGERATINCKSSQTILYPSNNMNYLGWYQQRAGQSPRLLIYWASTRESGVPDRFSGSGSGTDFTLTISSLQAEDVAVYYCQQYYSSLPTFGQGTKVEIKR |
| – | – | – | 0.028 | 0.021 | 25-3 (chimeric) (antibody, V domains shown, also called antibody (chimeric antibody) named 25-3) VH: QVQLQESGPGQVKPSQTLSLTCSVSGGSIDSGDHYWTWIRQHPGEVLEWIGYIYSSGHTYYSPSLKSRLTMSLDTSKNQFSLRLSSVTAADTAVYYCARVGDYEWFDTWGQGTLVTVSS VL: DIVMTQSPDSLAVSLGERATINCKSSQTILYPSNNMNYLGWYQQRAGQSPRLLIYWASTRESGVPDRFSGSGSGTDFTLTISSLQAEDVAVYYCQQYYSSLPTFGQGTKVEIKR |
| 0.0122 | 0.0164 | 0.00266 | – | – | fully human 25-3-2 (antibody, human IgG1, kappa, V domains shown, human Ig gamma1 / kappa) VH: QVQLQESGPGLVKPSQTLSLTCSVSGGSIDSGDHYWTWIRQHPGKGLEWIGYIYSSGHTYYSPSLKSRVTISVDTSKNQFSLRLSSVTAADTAVYYCARVGDYEWFDTWGQGTLVTVSS VL: DIVMTQSPDSLAVSLGERATINCKSSQTILYPSNNMNYLGWYQQKPGQSPRLLIYWASTRESGVPDRFSGSGSGTDFTLTISSLQAEDVAVYYCQQYYSSLPTFGQGTKVEIKR |
| 0.0121 | 0.0221 | 0.00568 | – | – | fully human 25-3-3 (antibody, human IgG1, kappa, V domains shown, human Ig gamma1 / kappa) VH: QVQLQESGPGLVKPSQTLSLTCSVSGGSISSGDHYWTWIRQHPGKGLEWIGYIYSSGHTYYSPSLKSRVTISVDTSKNQFSLRLSSVTAADTAVYYCARVGDYEWFDTWGQGTLVTVSS VL: DIVMTQSPDSLAVSLGERATINCKSSQTILYPSNNMNYLGWYQQRAGQSPRLLIYWASTRESGVPDRFSGSGSGTDFTLTISSLQAEDVAVYYCQQYYSSLPTFGQGTKVEIKR |
| 0.0121 | 0.0223 | 0.00348 | – | – | fully human 25-3-4 (antibody, human IgG1, kappa, V domains shown, human Ig gamma1 / kappa) VH: QVQLQESGPGLVKPSQTLSLTCSVSGGSISSGDHYWTWIRQHPGKGLEWIGYIYSSGHTYYSPSLKSRVTISVDTSKNQFSLRLSSVTAADTAVYYCARVGDYEWFDTWGQGTLVTVSS VL: DIVMTQSPDSLAVSLGERATINCKSSQTILYPSNNMNYLGWYQQKPGQSPRLLIYWASTRESGVPDRFSGSGSGTDFTLTISSLQAEDVAVYYCQQYYSSLPTFGQGTKVEIKR |
| 0.0123 | 0.019 | 0.00225 | – | – | fully human 25-3 (antibody, human IgG1, kappa, V domains shown, Human Ig gamma1 / human kappa constant regions; expressed in CHO-K1SV cells; also called fully human antibody of 25-3) VH: QVQLQESGPGQVKPSQTLSLTCSVSGGSIDSGDHYWTWIRQHPGEVLEWIGYIYSSGHTYYSPSLKSRLTMSLDTSKNQFSLRLSSVTAADTAVYYCARVGDYEWFDTWGQGTLVTVSS VL: DIVMTQSPDSLAVSLGERATINCKSSQTILYPSNNMNYLGWYQQRAGQSPRLLIYWASTRESGVPDRFSGSGSGTDFTLTISSLQAEDVAVYYCQQYYSSLPTFGQGTKVEIKR |

From patent US20150126713A1 (Astellas, published 2015)
